Measured values as given in the DeepSol protein solubility set.

Assay: soluble on expression in E. coli; label from the status in PepcDB or PDB records
For “MALDANDLLPPEKAFVPELAVADDGVNVRFRIADGYYMYQAKIVGKTNPADLLGQPSFSKGEEKEDEFFGRQTVYHHEAQVAFPYAKAVGEPYKLVLTYQGSAEAGVCYPPVDTEFDIFGNGTYHPQT”, the “soluble on expression in E. coli” value was “soluble”.
With “MGSDKIHHHHHHMSKEASFEIQLPLFAGPFDLLLFFIERDELDIYDIPISKITNDFLEYIHRLEKMNVDIASEFILVAATLMRIKAKTLLPRPDIDPQGNEIDPREELVSHLLEYKKYKSVIAEFSELEETSLKREKRGNIAKELKLLSEVSNVETELQDIDLYKLLKVFEKVIVRWKEEKTKPVHHVVQYPYSIELQKEYIINKVSRGQRISFTEIINDIPVKMAVIYNFLSILELLALQKIQLHLGEGFNNFWIAQYDGEHAAVNEYANDIE” the “soluble on expression in E. coli” value was “not soluble”.
With “MAGTSFLSDLLSGVTERGRALLFSGSKARDRVVDTDIETLCEMLLSSRGEASGMAIAAEILDRWSRFNAAEAVQFLHMLSDRFGAEAAALDKAIDAYRTDKSPMAVIALHNAAEPRRQELLRRLNLAPNGTQKLVRMRERLLETKEDRADLGAVDTDFAHLFSSWFNRGFLTLQPIDWTTPAHILEKIIKYEAVHEIAGWEELRRRLAPADRRCFAFFHPRLRDDPLVFVEVALTRSIPSAIADVLDESRDHIGADTATTAVFYSISNCQDGLRGISFGNFLIKQVVEDLRRDLPGLKEFVTLSPVPGFARWISKIRDPKSGFPLSPEDRNTLVLLDDPTWPEDKARADAVERILLPLAARYFITERTPDNRPVDPVARFHLGNGARLERLNFLGDRSVKAMRQAHGLMVNYLYKLEDIETNHEALAQRGEVAASPAVKALQGKIEPILPEKPKLEHHHHHH” the “soluble on expression in E. coli” value was “soluble”.
In the case of “MIKFYQYKNCTTCKKAAKFLDEYGVSYEPIDIVQHTPTINEFKTIIANTGVEINKLFNTHGAKYRELDLKNKLQTLSDDEKLELLSSDGMLVKRPLAVMGDKITLGFKEDQYKETWLA”, the “soluble on expression in E. coli” value is reported as “not soluble”.
For “MYDVLDSQSVLEVLRPVQDPELRKSLVELNMIRNVKIDGGQVSFTLVLTTPACPLREFIVEDCQRAVKKLPGVTDVSVEVTAETPQQKSLPDRNGVPGVKNIIAISSGKGGVGKSTVAVNVAVALAQTGAKVGLLDADIYGPNDPTMLGLGDAQIVVRSTEKGEVLEPAFNHGVKLVSMGFLIDRDQPVIWRGPMLNGVIRQFLYQVEWGELDYLIVDMPPGTGDAQLTLTQAVPMSGAVIVTTPQNVALLDSRKGLRMFQQMNVAVLGIVENMSYFIPPDMPDKHYDIFGSGGGSKTAAELGVPLLGCIPLEISTRIGGDNGVPIVVADPDSASAKALKAIALTIAGKVSVAALTLEHHHHHH”, the “soluble on expression in E. coli” value was “soluble”.
For “MEGIPGQRDGVYWLPPAEDGKDPATPWWLCSPLHVLAETRDASQSNWGRLLEWRDNDGHPHRWACPVEMLAASDTAEFRRELVRGGLTMSTSQKARQKLVDYVLSHRQAAATRLRCVSRIGWHDVRYVLPGEVHGEQDGEGVIYQGADSGDFDRAGTLQEWQTHIAAAAAGNSRIVFAISVAFAGVLADMAGESGGGFHFVGTTSKGKTSTLLDPAASVWGNPDQFAKKWRTTQNGLEGLCLGRNDNLLILDELAQIAPADAGGAAYLIANGQAKARMTKEGGNRPAHTWRVMLLSAGEIDLAQHMAEAGKSAKGGQIARLPAIPADAGAGMGTLEQLHQHPSGQAFADAMKAYSRQYYGTAGPAFLAALTPPECMDEIRRDIKDGVTGLIEYLGVPAGAAQEVGRVAARFALVAFAGELATRYGVTGWKPGEAVQAARRCFREWLAENHTGMAADDRALFAQVSGFMQTHSSTRFPPHDAAPEVLARYLNRAGFTFIDEQGTQQFWVLSEPFKKELCRGYTPLIAARSLLRAGWLLAGDTEGNTRRHTRKKRIKALDSATVNVYVLTSTVLEGEELEHHHHHH”, the “soluble on expression in E. coli” value was “not soluble”.
For “MGSDKIHHHHHHMSELSQLSPQPLWDIFAKICSIPHPSYHEEALAAHILEWAKEKGIYAERDQVGNILLRKAATAGMENRKPVVLQAHLDMVPQKNNDTVHDFTTDPIQPYVDGEWLKARGTTLGADNGIGMASALAVLADPSVEHGPLEVLLTMTEEAGMDGAFGLQPNWLQGEILINTDSEEEGEIYMGCAGGIDFITRLPLVREVPPAGYQTLKLTIKGLKGGHSGGDIHLGLGNANKLLARFLFEQAEALDIRILDLNGGTLRNAIPREAFATLSLPAANVEQLKTLSQDYLAVLKNELSAVEKNLTVLVEANDSNEHPLTQDSRDRLLGLLNATPNGVIRMSDDVKGVVETSLNLGVVTMEDDHAEIICLIRSLIDSGKDAVVGTLTALGQLAGAKTSPKGGYPGWQPDAHSPVMALVRETYQKQFNKTPNIMVIHAGLECGLFKKPYPDMDMVSIGPTITGPHSPDEQVHIGSVDLYWKLLTELLKAIPPRA”, the “soluble on expression in E. coli” value was “not soluble”.
For “MAHHHHHHSLSELVIESWRADDKALWEQKIIPAFEAANPGIKVKFNPVPNVNYTPTLWENLKAGKAGDLITCRPFDDSLALFKAGHLAEITEMAGMENFPSFAQAPWQTDSGAQTFCVPMASVIHGFFYNKKIFNELGLSVPQTREQFFTVLDKVKADGRYIPLSMSGSESWVASELGYQNIGPNYWKGEDGRLALINGQEHLDDSQYVKVFEELARWRAYLGEDGELRDYGTSNELFTSGKAALYVAGSWEIAPFTDKVDFGVMRPPVAKQGDGCFFTDHTDIGMGMNPASKNPQAAMAFLQWLTTPEFAELYTNSLPGFFSLSNHFFDVTNPAAREMMEWRDQCDSTIRVATQILSRGQPKLGDELAEVSQAVLVGKMTPTAAAERLEQGLKRWYAPHQTRKAKEQECQCVEPISPTTRLNTLPVVDIAPVVASDPVPPTEATILSEEG”, the “soluble on expression in E. coli” value was “not soluble”.
In the case of “MWYQKTLTLSAKSRGFHLVTDEILNQLADMPRVNIGLLHLLLQHTSASLTLNENCDPTVRHDMERFFLRTVPDNGNYEHDYEGADDMPSHIKSSMLGTSLVLPVHKGRIQTGTWQGIWLGEHRIHGGSRRIIATLQGELEHHHHHH”, the “soluble on expression in E. coli” value is reported as “soluble”.
For “MGSDKIHHHHHHMAPLAPLALSELGPKLDRSIDPLWISRQSLEAEPNAFKPGCGWLPNDWMPLESIRKALRSATRREDDSLLGYSSPLGLSALRDLLARRAQSKGIEANLNQVLLTDSGTQAIDLVCRFLLKPDDVVLIDDPCYFNFHALLKVHQVKVVGIPYTPNGPDLEAFKEAIESYNPRLYITNSGIHNPTGATLSLSTAHQLLKLIDQSNLIVIEDDIFSDFEYTPAPRLAALDNLSRVIFIGSFSKTLSASIRCGYIIAKPEWIDQIADLKIATSFSHNGLSAKILHTALTDGSYRKHLDLLKVRLAQAMQETIAKLKSIGIEPWIEPKAGIFVWCRLPEGVDAAKIARFCLNRQVILAPGNAFSQAQSAGQFIRFNITQSNHDYIYKTLAEALLQESLEKQV”, the “soluble on expression in E. coli” value was “not soluble”.
For “GMSHVSYAEPPAQGWDIHCHTVFSDGTETPRTLVEQARKLGLHGVAIADHDTTAGWDEATEASEEIGLPLLLGTEITAVDEDVSVHMLAFQYDPSNEHISSMFANTRAARLRRTKRMVERLSQDFPITWDDVLAQVKEGERTTIGRPHIADALVAAGVYETRSDAFADAVSAKSKYYIPTPSPSTHEVIAAVKGAGGVVVAAHAGDPQRNRRLLSDEQLDAMIADGLDGLEVWHRGNPPEQRERLLTIAARHDLLVTGGSDWHGKGKPNGLGENLTDDDTVREILCRGVDLIGRVGSSHAA”, the “soluble on expression in E. coli” value was “soluble”.
For “MSLNRKHETVSEFVRHLPCENCGSSDANSIYTDNHQYCFACEHYVHGDGETPTTGGRTKRMEGLISGEFKPLMKRKLTLETCRKFGYFVSEVRGRLVQVAPYFDNSGVMVAQKLRDQDKGFAILGDGAKLTLFGQNLWASGGKKIVVTEGELDAMSVSQVQNNKWPVVSLPNGAPAARKAIQRNIEYLESFEEVILMFDMDEPGREAAQECAELFSPGKCKIATLSMKDANELLVAGREQEIVTAIWNAKLYRPDGVVNVRDLLEEIRKALVMGLPWFLDPLTQLTYGRRYGEVYGLGAGTGVGKTDFLTQQIAYDIQVLGERVGTIFLEQKPTETAKRVAGKIAGKRFHVPKDTAGWTDEELDAAVDALGENLVMYDAFGETEWDIVKRKVRYMAVSEGIKLIYIDHLTAMADTADEKGSLEQIMKEMAGLANELGIIITFISHLTTPEGKPHEEGGRVTIRHFKGSRAIGFWSYFMFGLERDQQAEDPVVRQTTTFRILKDRCTGQATGEVLYLAYDRDTGLLSLTEAPEPSSPFKDESEGHHHHHH”, the “soluble on expression in E. coli” value was “soluble”.
